Measurements taken from publication PMC8814693 (Computational and Structural Biotechnology Journal, 2022).
One block for each binder: values may come before it.

How the values were obtained:
Conditions in all cases: both partners purified
Bcl-XL (residues 1-209) [1] = molecular target: T1, Bcl-XL (residues 1-209) (UniProt Q07817-1 1-209); assay: SPR; Bfk BH3 peptide amine-coupled to a CM5 chip (10 mM sodium acetate pH 5.0); Bcl-2, Bcl-XL (3.13-200 nM) and Bak (1.25-40.0 uM) injected in HBS-EP at 30 uL/min for 90 s; Biacore T200; KD by steady-state affinity analysis
T1 construct: Bcl-XL, residues 1-209; Cloned in pET-28a(+) between NdeI and XhoI; buffer-exchanged to HBS-EP
T1 sequence (Q07817 1-209): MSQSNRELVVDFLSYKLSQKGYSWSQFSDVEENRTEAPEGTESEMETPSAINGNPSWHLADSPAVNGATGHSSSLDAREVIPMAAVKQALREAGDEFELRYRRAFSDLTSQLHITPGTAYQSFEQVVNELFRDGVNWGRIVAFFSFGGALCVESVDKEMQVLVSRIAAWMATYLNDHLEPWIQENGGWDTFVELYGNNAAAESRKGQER

Bcl-2 (residues 1-207) [2] = molecular target: T2, Bcl-2 (residues 1-207) (UniProt P10415 1-207); assay: as above
T2 construct: Bcl-2, residues 1-207; Cloned in pET-28a(+) between NdeI and XhoI; buffer-exchanged to HBS-EP
T2 sequence (P10415 1-207): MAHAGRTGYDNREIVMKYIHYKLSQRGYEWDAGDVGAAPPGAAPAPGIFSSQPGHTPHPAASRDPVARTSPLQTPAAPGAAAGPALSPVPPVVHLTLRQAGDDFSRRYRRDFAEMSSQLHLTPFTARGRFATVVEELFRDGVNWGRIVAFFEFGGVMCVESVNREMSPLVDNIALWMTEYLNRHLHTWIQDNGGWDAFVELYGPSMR

Bak (residues 23-186) = molecular target: T3, Bak (residues 23-186) (UniProt Q16611 23-186); assay: SPR; Bid BH3 peptide amine-coupled to a CM5 chip (10 mM sodium acetate pH 4.0); proteins injected in HBS-EP (10 mM HEPES pH 7.5, 150 mM NaCl, 0.05 mM EDTA, 0.005% Tween 20) at 30 uL/min for 90 s; Biacore T200; affinity experiments, responses plotted against concentration
T3 construct: Bak, residues 23-186; Cloned in pET-28a(+) between NdeI and XhoI; buffer-exchanged to HBS-EP
T3 sequence (looked up): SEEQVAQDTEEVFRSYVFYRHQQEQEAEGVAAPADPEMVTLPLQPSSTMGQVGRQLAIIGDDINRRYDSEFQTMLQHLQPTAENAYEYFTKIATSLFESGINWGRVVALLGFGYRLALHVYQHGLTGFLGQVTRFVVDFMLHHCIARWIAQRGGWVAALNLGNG

Bcl-XL (residues 1-209) [3] = molecular target: T1, Bcl-XL (residues 1-209); assay: as above
Bcl-2 (residues 1-207) [4] = molecular target: T2, Bcl-2 (residues 1-207); assay: as above

Kd (Bcl-XL (residues 1-209) [1]): 36.9 nM
Kd (Bcl-2 (residues 1-207) [2]): 17.4 nM
B1: synthetic BH3 peptide derived from Bfk (residues 47-67) (peptide)
peptide: SFDVAIIAGRLRMLGDQFNGE
notes: BH3 peptide of human Bfk (BCL2L15), residues 47-67; also called Bfk BH3 peptide; Bfk BH3; source: synthetic peptide

Kd (Bak (residues 23-186)): 37000 nM
Kd (Bcl-XL (residues 1-209) [3]): 87 nM
Kd (Bcl-2 (residues 1-207) [4]): 44 nM
B2: synthetic BH3 peptide derived from Bid (residues 79-100) (peptide)
peptide: EDIIRNIARHLAQVGDSMDRS
notes: BH3 peptide of Bid; also called Bid BH3 peptide; representative BH3 peptide; source: synthetic peptide
